# Measurements taken from PMC5253658.
# What was measured:
# [1] = molecular target: FAM-labelled unphosphorylated SCIMP Y96 peptide (amino acids 90-107) (mouse); experiment: other fluorescence titration; FAM-labelled SCIMP Y96 peptides (aa 90-107) titrated with unlabelled TLR4-TIR; 25 °C, 30 mM Tris pH 7.4, 150 mM NaCl, 1 mM dithiothreitol; curve fit (Grafit)
# [2] = molecular target: FAM-labelled phosphorylated SCIMP Y96 peptide (amino acids 90-107) (mouse); experiment: as above
# [3] = molecular target: TLR4 TIR domain, 670-835 (UniProt Q9QUK6); experiment: fluorescence titration of FAM-labelled peptide; conditions: reference: unphosphorylated Y96 peptide; sites Y96
# [4] = molecular target: TLR4 (UniProt Q9QUK6); experiment: co-immunoprecipitation of SCIMP, TLR4 blot; conditions: reference: wild type SCIMP; sites Y96
substance,measurement,setting,value
"His-TLR4-TIR (cytoplasmic TIR domain of mouse TLR4, amino acids 670-835) (from UniProt Q9QUK6 670-835) (domain or fragment)",Kd,[1],> 2500 nM
same,Kd,[2],159 nM
SCIMP 90-107 (from UniProt Q3UU41) pY96 peptide,KD,[3],stronger; reference >2.5 μM
SCIMP (from UniProt Q3UU41) Y96F,binding against the reference,[4],lost
